We go through four molecules from PMC10397247.

One test has as its target T1, Core_NINN-es_KKEE.
T1 chain: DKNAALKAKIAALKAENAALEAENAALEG
Description: two-hybrid library CCmax.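 Further: natural log of median RNA to DNA barcode read ratio; higher means stronger binding.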 Particulars: mean of both orientations.

For test [1], the target named is T2, P6SC2R.
T2 chain: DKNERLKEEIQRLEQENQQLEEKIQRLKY
Description: two-hybrid library CCNG1.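 Further: natural log of median RNA to DNA barcode read ratio; higher means stronger binding.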

The target in test [2] is T2, P6SC2R. Description: two-hybrid library CCmax.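 Further: natural log of median RNA to DNA barcode read ratio; higher means stronger binding.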
For another test, the target named is T3, Core_NNIN-es_KEEK.
T3 chain: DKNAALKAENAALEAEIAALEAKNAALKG
Description: two-hybrid library CCmax.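 Further: natural log of median RNA to DNA barcode read ratio; higher means stronger binding.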 Particulars: mean of both orientations.

The target in a further test is T4, O10.
T4 chain: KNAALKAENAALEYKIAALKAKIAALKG
As to the kind of experiment: two-hybrid library CC0. Particulars: mean of both orientations.

A further test addresses T5, O11.
T5 chain: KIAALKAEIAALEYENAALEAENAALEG
Description: two-hybrid library CC0. Conditions: mean of both orientations.

The target of another test is T6, O12.
T6 chain: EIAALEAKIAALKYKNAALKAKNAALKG
Description: two-hybrid library CC0. Particulars: mean of both orientations.

For another test, the target named is T7, O13.
T7 chain: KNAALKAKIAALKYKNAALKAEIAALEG
As to the kind of experiment: two-hybrid library CC0. Particulars: mean of both orientations.

The next test concerns the target T8, O14.
T8 chain: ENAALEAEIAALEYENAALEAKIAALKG
Description: two-hybrid library CC0. Particulars: mean of both orientations.

The next test has as its target T9, O15.
T9 chain: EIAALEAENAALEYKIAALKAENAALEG
Description: two-hybrid library CC0. Particulars: mean of both orientations.

In another test the target is T10, O16.
T10 chain: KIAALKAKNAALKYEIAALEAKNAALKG
As to the kind of experiment: two-hybrid library CC0. Particulars: mean of both orientations.

A further test has as its target T11, O1.
T11 chain: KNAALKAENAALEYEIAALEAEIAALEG
Description: two-hybrid library CC0. Conditions: mean of both orientations.

The target in a further test is T12, O2.
T12 chain: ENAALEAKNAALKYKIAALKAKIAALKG
As to the kind of experiment: two-hybrid library CC0. Conditions: mean of both orientations.

In another test the target is T13, O3.
T13 chain: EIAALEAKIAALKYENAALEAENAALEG
As to the kind of experiment: two-hybrid library CC0. Conditions: mean of both orientations.

The target in a further test is T14, O4.
T14 chain: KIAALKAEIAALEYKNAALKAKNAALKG
Description: two-hybrid library CC0. Conditions: mean of both orientations.

For another test, the target named is T15, O5.
T15 chain: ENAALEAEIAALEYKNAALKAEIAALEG
Description: two-hybrid library CC0. Particulars: mean of both orientations.

The next test concerns the target T16, O6.
T16 chain: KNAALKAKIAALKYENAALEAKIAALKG
As to the kind of experiment: two-hybrid library CC0. Conditions: mean of both orientations.

The next test has as its target T17, O7.
T17 chain: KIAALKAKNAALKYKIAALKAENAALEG
As to the kind of experiment: two-hybrid library CC0. Particulars: mean of both orientations.

For the next test, the target named is T18, O8.
T18 chain: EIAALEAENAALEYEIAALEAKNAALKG
Description: two-hybrid library CC0. Conditions: mean of both orientations.

In the next test the target is T19, O9.
T19 chain: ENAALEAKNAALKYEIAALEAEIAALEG
As to the kind of experiment: two-hybrid library CC0. Conditions: mean of both orientations.

As for DENAALEAEIAALEAKNAALKAKNAALKG [Core_NINN-es_EEKK], the interaction score in the test with Core_NINN-es_KKEE came to 1.6.
For DENSQLEEKISQLKQKNSRLKEEIQRLEY [P5SC1Q], the interaction score with P6SC2R [1] was found to be 1.2; in the test with P6SC2R [2], 1.06.
DENAALEAKNAALKAKIAALKAENAALEG [Core_NNIN-es_EKKE] yielded an interaction score with Core_NNIN-es_KEEK of 1.39.
With KNAALKAENAALEYEIAALEAEIAALEG [O1], the interaction score with O10 is -0.97; with O11, -2.7; in the test with O12, -2.64; with O13 it was -2.57; with O14, -2.71; with O15, -2.7. The interaction score with O16 is -2.65; in the test with O1, -2.74; with O2, 1.37; with O3 it was -2.76; in the test with O4 it was -2.68; in the test with O5 it was -2.77. In addition, the interaction score in the test with O6 was -2.76; with O7, -2.69; with O8 it was -2.67; with O9, -2.49.
